Assays:
[1] = test system: mTOR/p70S6K signaling pathway; experiment: Western blot analysis of mTOR/p70S6K signaling pathway in Jurkat T cells; assay type: cell-based, human; conditions: 100 nM compound with 10 ng/ml IL2, 24 hours, without changes in total p70S6K, FIG. 20A
Method: To examine the biological activities of these compounds, western blot analysis of mTOR/p70S6K signaling pathway and T-cell proliferation assay were performed with human Jurkat T cells. T-cell viability and proliferation were assessed using alamarBlue® cell viability reagent (Invitrogen).
For the western blot analysis of mTOR/p70S6K signaling pathway, briefly, Jurkat T cell were seeded into 6-cm cell culture dish in RPM11640 medium containing 10% fetal bovine serum.
Insoluble material was collected by centrifugation at 14,000×g for 20 minutes at 4° C. The cell lysate samples were separated on 10% SDS-PAGE gels and transferred to a PVDF membrane (Millipore). The membrane blots were blocked in PBS containing 5% BSA for 1 hour at room temperature, and incubated with primary antibodies, anti-phospho-p70S6K antibody (Cell Signaling Technology, Danvers, USA) and anti-p70S6K antibody (Cell Signaling Technology), overnight at 4° C. […] Then the membranes were washed three times with TBST, and immunoreacted bands were detected with ECL™ western blotting detection reagents (Millipore) and exposed on Fujifilm (Tokyo, Japan). Relative quantification of ECL signals on X-ray films were analyzed by using Image J (NIH, Bethesda, Md., USA).

scFv specific for CTLA-4 = experiment: Western blot of recombinant CTLA-4 detected with scFv specific for CTLA-4; assay type: binding; conditions: scFv 1 μg/ml; FIG. 14C
Method: Recombinant CTLA-4 protein was analyzed and detected using western blotting. Briefly, 50 μl of the purified CTLA-4 protein was electrophoresed on the 12% SDS-PAGE gel (lane 2) and electroblotted over to a PDVF membrane. The protein (CTLA-4)-IgG1Fc-(scFv α HLA-A1) was used as a positive control (lane 1). After blocking with 5% BSA in TBST at room temperature for 1 hour, the diluted scFv specific for CTLA-4 (1 μg/ml) was added and incubated with the membrane overnight at 4° C. with gentle shaking. The membrane was rinsed and washed 3 times with TBST. The diluted HRP-conjugated protein L (1:5000) was added and incubated with the membrane at room temperature for 1 hour, and the rinse and wash cycle was repeated with TBST for 3 times. The membrane was then incubated with HRP substrate solution for 20 minutes before being exposed to the photographic film.

PD1-IgG1.Fc = target: T1, PD1-IgG1.Fc (Homo sapiens, UniProt Q15116); experiment: ELISA of coated recombinant PD-L1 binding PD1-IgG1.Fc; conditions: PD-L1 coated at 50 μg/ml, PD1-IgG1.Fc at 50 μg/ml; FIG. 14D
T1 construct: made in house; host or cells: Expi293F
T1 sequence (Q15116 with tags, fused parts or gaps): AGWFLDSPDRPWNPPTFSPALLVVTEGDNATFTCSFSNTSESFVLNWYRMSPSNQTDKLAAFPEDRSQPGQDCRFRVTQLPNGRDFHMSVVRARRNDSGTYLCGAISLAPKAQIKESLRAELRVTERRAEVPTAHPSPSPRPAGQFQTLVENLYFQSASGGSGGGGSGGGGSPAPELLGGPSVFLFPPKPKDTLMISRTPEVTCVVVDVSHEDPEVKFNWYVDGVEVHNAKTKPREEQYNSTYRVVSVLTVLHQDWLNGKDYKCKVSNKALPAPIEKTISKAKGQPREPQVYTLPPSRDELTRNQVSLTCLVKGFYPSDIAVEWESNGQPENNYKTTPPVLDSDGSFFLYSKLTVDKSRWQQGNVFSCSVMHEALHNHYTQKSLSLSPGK
Method: Binding activity of recombinant PD-L1 protein was assayed with ELISA using a 96-well plate coated with recombinant PD-L1 protein in 50 μg/ml concentration, 100 μl per well. After the excess PD-L1 was washed off and the solid phase blocked, 100 μl per well of PD1-IgG1.Fc at 50 μg/ml was added. The bound PD1-IgG1.Fc was determined by HRP-conjugated goat anti-human IgG.Fc. 50 μl of TMB substrate was added for color development. The reaction was stopped by 50 μl of 1M HCl. Absorbance at 450 nm was measured with a plate reader. Each bar represents the mean OD450 value of duplicate samples.

human HLA-A2 = target: T2, human HLA-A2 (Homo sapiens, UniProt P04439); experiment: Single colony ELISA of phage-displayed scFvs specific for human HLA-A2; assay type: binding; conditions: secreted scFv in supernatant; HLA-A2 0.5 μg per well; FIG. 16B
T2 construct: made in house; host or cells: Expi293F
Method: E. coli strain ER2738 infected with single-clonal phages each harboring a selected scFv gene in its phagemid was grown in the mid-log phase in 2YT broth (16 g/l tryptone, 10 g/l yeast extract, 5 g/l NaCl, pH 7.0) with 100 μg/ml ampicillin in deep well at 37° C. with shaking. After the broth reached an OD600 of 1.0, IPTG was added to a final concentration of 1 μg/ml. The plates were incubated at 37° C. overnight under rigorously shaking. Thereafter, the plates were centrifuged at 4,000 g for 15 minutes at 4° C.
For soluble scFv binding test, ELISA was carried out. Briefly, 96-well Maxisorp 96-well plate (Nunc) was coated with human HLA-A2 (0.5 μg/100 μl PBS per well) or two negative control antigens, human heat shock protein 70 (Hsp 70) and RSV-IgG1.Fc fusion protein (prepared by our laboratory), for 18 hours with shaking at 4° C. After being treated with 300 μl of blocking buffer for 1 hour, 100 μl of secreted scFv in the supernatant was mixed with 100 μl of blocking buffer and then added to the coated plate for another 1 hour. Goat anti-E-tag antibody (conjugated with HRP, 1:4000, Cat. No. AB19400, Abcam) was added to the plate for 1 hour. TMB substrate (50 μl per well) was added to the wells and the absorbance at 450 nm was measured after reactions were stopped by adding 1N HCl (50 μl per well).

human HLA-A1 [2] = target: T3, human HLA-A1 (Homo sapiens, UniProt P04439); experiment: ELISA of purified scFv of mAb specific for human HLA-A1; assay type: binding; conditions: scFv specific for TNF-α as negative control; FIG. 15C
T3 construct: made in house; host or cells: Expi293F
Method: The expression of the constructed gene in Expi293F cells was performed as in preceding Examples. Culture supernatants were harvested and scFv proteins in the media were purified using Protein L affinity chromatography. FIGS. 15A, 15B and 15C show 12% SDS-PAGE, mass spectrometric and ELISA analyses of purified scFv of mAb specific for human HLA-A1. […] The scFv specific for TNF-α was used as a negative control, which was prepared as described in PCT patent application publication No. WO/2016112870.

human HLA-A1 [3] = target: T3, human HLA-A1; experiment: ELISA of tetrazine-conjugated scFv specific for human HLA-A1; assay type: binding; conditions: unmodified scFv as positive control; FIG. 17B
Excerpt: The purity of tetrazine-conjugated scFv specific for human HLA-A1 was identified through Coomassie blue staining of 12% SDS-PAGE. FIGS. 17A and 17B show, respectively, the mass spectrometric and ELISA analysis of tetrazine-conjugated scFv specific for human HLA-A1, in which unmodified scFv specific for human HLA-A1 was used as a positive control.

`COC1CC2CCC(C)C(O)(O2)C(=O)C(=O)N2CCCCC2C(=O)OC(C(C)CC2CCC(OC(=O)CN)C(OC)C2)CC(=O)C(C)C=C(C)C(O)C(OC)C(=O)C(C)CC(C)C=CC=CC=C1C` (stereo not shown) [sirolimus-Gly] was tested, and the “phosphorylated level of p70S6K” value [1] was “decreased”.

For `COC1CC2CCC(C)C(O)(O2)C(=O)C(=O)N2CCCCC2C(=O)OC(C(C)CC2CCC(OC(=O)CNC(=O)CN)C(OC)C2)CC(=O)C(C)C=C(C)C(O)C(OC)C(=O)C(C)CC(C)C=CC=CC=C1C` (stereo not shown) [sirolimus-diGly], the “phosphorylated level of p70S6K” value [1] was “decreased”.

With “recombinant human CTLA-4: recombinant human CTLA-4, SEQ ID NO: 30, with GGGGSGGGGS linker and terminal cysteine at the C-terminus” the “binding by the scFv specific for CTLA-4 (western blot)” value (scFv specific for CTLA-4) was “specifically bound”.

“recombinant human PD-L1: recombinant human PD-L1, SEQ ID NO: 31, with GGGGSGGGGS linker and terminal cysteine at the C-terminus” was tested, and the “binding to recombinant PD1-IgG1.Fc (ELISA)” value (PD1-IgG1.Fc) was “specifically bound”.

B1: 3E10: phage-displayed scFv clone that binds to human HLA-A2, SEQ ID NO: 34 (protein)
scFv: DIQMTQSPSSLSASVGDRVTITCRASQDVFFFVAWYQQKPGKAPKLLIYGPPGLYSGVPSRFSGSGSGTDFTLTISSLQPEDFATYYCQQYFSFPITFGQGTKVEIKRGGGGSIEGRSGGGGSEVQLVESGGGLVQPGGSLRLSCAASGFTISNGGIHWVRQAPGKGLEWVASIWPSGGYTSYADSVKGRFTISADTSKNTAYLQMNSLRAEDTAVYYCARFGVNYHGIMDYWGQGTLVTVSS
modifications: phage-displayed scFv specific for HLA-A2, 3E10
With B1 the “OD450 of binding to human HLA-A2” value (human HLA-A2) was 1.3.

B2: scFv of mAb specific for human HLA-A1: scFv with VL and VH from monoclonal antibody 4-35-7, SEQ ID NO: 32 (protein)
scFv: DIQMTQSPSTLSASVGDRVTITCRASQSISNWLAWYQQKPGKAPNLLIYKASSLESGVPSRFSGSGSGTEFTLTISSLQPDDFATYYCQQYHDYSVTFGAGTKVEIKRGGGGSGGGGSGGGGSEVQLLESGGGLVQPGGSQRLSCVASGVPFSNYAMNWVRQAPGKGLEWVSSISGGGDRTFYADSVKGRFTISRDNSKNTLYLQMNSLGAGDTAVYYCAKTYYDFWSGYSRHLNSWGQGSLVTVSSGGGGSGGGGSC
modifications: anti-HLA-A1 4-35-7 scFv
With B2 the “binding to human HLA-A1 (ELISA)” value (human HLA-A1 [2]) was “bound specifically”.

B3: tetrazine-conjugated scFv specific for human HLA-A1: scFv specific for human HLA-A1 (SEQ ID NO: 32) conjugated at C-terminal cysteine with Mal-PEG4-tetrazine (conjugate)
scFv: DIQMTQSPSTLSASVGDRVTITCRASQSISNWLAWYQQKPGKAPNLLIYKASSLESGVPSRFSGSGSGTEFTLTISSLQPDDFATYYCQQYHDYSVTFGAGTKVEIKRGGGGSGGGGSGGGGSEVQLLESGGGLVQPGGSQRLSCVASGVPFSNYAMNWVRQAPGKGLEWVSSISGGGDRTFYADSVKGRFTISRDNSKNTLYLQMNSLGAGDTAVYYCAKTYYDFWSGYSRHLNSWGQGSLVTVSSGGGGSGGGGSC
modifications: Mal-PEG4-tetrazine at C-terminal cysteine; anti-HLA-A1 4-35-7 scFv
For B3, the “binding to recombinant HLA-A1 (ELISA)” value (human HLA-A1 [3]) was “bound to recombinant HLA-A1”.
